{"source": "patent US20240076386A1", "about": "(Pfizer, published 2024)", "key": {"[1]": {"target": "T1, human E-selectin, cell-surface expressed (human, UniProt P16581 22-610)", "T1 construct": "also called CHO-human E-selectin cells; human CHO-E", "T1 sequence": "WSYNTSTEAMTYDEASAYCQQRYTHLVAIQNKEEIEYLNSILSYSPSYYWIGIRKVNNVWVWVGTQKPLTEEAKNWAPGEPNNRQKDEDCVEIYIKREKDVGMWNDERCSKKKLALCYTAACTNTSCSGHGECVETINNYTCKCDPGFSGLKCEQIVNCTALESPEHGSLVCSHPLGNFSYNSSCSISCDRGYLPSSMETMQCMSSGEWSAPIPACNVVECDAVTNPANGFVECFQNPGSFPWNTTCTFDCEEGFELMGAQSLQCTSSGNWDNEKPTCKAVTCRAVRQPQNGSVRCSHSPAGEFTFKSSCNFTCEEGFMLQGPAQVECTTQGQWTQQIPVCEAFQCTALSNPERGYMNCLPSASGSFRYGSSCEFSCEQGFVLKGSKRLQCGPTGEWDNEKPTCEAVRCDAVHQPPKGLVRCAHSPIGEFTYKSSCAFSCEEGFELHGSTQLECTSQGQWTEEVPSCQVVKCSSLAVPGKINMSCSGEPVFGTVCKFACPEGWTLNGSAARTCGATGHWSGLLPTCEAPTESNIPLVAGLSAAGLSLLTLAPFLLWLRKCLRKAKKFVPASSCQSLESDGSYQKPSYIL", "experiment": "competition ELISA on CHO cells vs sialyl Lewis ligand, further assays", "description": "(§1) CHO cells expressing E-selectin were seeded at 12,500 cells per well into a 96 well tissue culture plate and incubated at 37° C., 5% CO₂ for 48 hours to form a confluent monolayer. Plates were subsequently washed twice with 200 μL of calcium magnesium free PBS. Anti-E-selectin antibodies or an IgG1 isotype control (IgG control) were added to the assay in the presence of a small synthetic conjugate of biotinylated, sialyl Lewis A polyacrylamide (Carbosynth LLC, OS45446) or sialyl Lewis X polyacrylamide (Glycotech, 01-045) with streptavidin/horseradish peroxidase (100 μL total) and incubated at 37° C., 5% CO₂ for 2 hours. Plates were then washed twice with 200 μL of calcium and magnesium free PBS. Following the incubation, the cells were washed twice with 200 μL of wash buffer containing 2 mM of calcium chloride (50 mM TRIS [trisaminomethane], 150 mM sodium chloride; 0.05% polysorbate 20, pH 7.4; 2 mM calcium chloride). Signal was developed by adding 100 μL of 1-Step Ultra TMB substrate (Thermo Scientific, 34028) and incubating for 30 minutes at room temperature. Reactions were stopped using 2 M of sulfuric acid and absorbance was read at 450 nm (Spectramax M5e). Data were analyzed and graphed using GraphPad Prism software (Version 8.0.2)."}, "[2]": {"target": "T2, cynomolgus monkey E-selectin, cell-surface expressed (cynomolgus monkey, UniProt P16581 22-610 (human entry))", "T2 construct": "also called CHO-cynomolgus monkey E-selectin cells; cynomolgus monkey CHO-E", "T2 chain": "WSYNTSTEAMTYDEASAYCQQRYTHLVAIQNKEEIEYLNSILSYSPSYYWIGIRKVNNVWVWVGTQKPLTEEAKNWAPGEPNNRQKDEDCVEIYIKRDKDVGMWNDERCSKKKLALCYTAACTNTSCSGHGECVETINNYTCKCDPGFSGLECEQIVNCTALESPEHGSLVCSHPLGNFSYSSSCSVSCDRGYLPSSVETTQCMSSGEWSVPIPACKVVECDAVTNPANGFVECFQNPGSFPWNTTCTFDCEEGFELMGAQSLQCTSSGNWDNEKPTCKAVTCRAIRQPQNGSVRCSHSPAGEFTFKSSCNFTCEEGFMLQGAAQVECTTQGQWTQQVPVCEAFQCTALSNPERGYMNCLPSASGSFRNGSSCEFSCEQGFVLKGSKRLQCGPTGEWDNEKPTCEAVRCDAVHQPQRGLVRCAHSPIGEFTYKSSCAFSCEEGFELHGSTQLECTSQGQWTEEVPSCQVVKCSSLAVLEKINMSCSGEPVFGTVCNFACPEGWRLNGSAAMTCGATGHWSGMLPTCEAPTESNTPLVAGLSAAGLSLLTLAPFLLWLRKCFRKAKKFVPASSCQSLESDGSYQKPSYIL", "experiment": "competition ELISA on CHO cells vs sialyl Lewis ligand, further assays", "description": "as §1"}, "[3]": {"target": "T1, human E-selectin, cell-surface expressed", "experiment": "neutralization of sialyl Lewis A ligand binding, CHO cells, competition ELISA", "description": "(§2) In a static ligand cellular adhesion assay, horse radish peroxidase (HRP) conjugated E-selectin ligand (sialyl Lewis antigen) and E-selectin antibodies compete for binding to human or cynomolgus E-selectin expressed on Chinese hamster ovary (CHO) cells. The ability of anti-E-selectin antibodies to neutralize ligand binding was assessed in a static neutralization assay using a competition enzyme-linked immunosorbent assay (ELISA) to evaluate the neutralization of the sialyl Lewis antigen to Chinese hamster ovary cells (CHO) engineered to express human or cynomolgus monkey E-selectin.\nas §1, with “Plates were then washed twice with 200 μL of calcium and magnesium free PBS. Following the incubation, the cells were washed twice with 200 μL of wash buffer containing 2 mM of calcium chloride (50 mM TRIS [trisaminomethane], 150 mM sodium chloride; 0.05% polysorbate 20, pH 7.4; 2 mM calcium chloride). Signal was developed by adding 100 μL of 1-Step Ultra TMB substrate (Thermo Scientific, 34028) and incubating for 30 minutes at room temperature.” left out"}, "[4]": {"target": "T2, cynomolgus monkey E-selectin, …", "experiment": "neutralization of sialyl Lewis A ligand binding, CHO cells, competition ELISA", "description": "as §2\nas §1, with “Plates were then washed twice with 200 μL of calcium and magnesium free PBS. Following the incubation, the cells were washed twice with 200 μL of wash buffer containing 2 mM of calcium chloride (50 mM TRIS [trisaminomethane], 150 mM sodium chloride; 0.05% polysorbate 20, pH 7.4; 2 mM calcium chloride). Signal was developed by adding 100 μL of 1-Step Ultra TMB substrate (Thermo Scientific, 34028) and incubating for 30 minutes at room temperature.” left out"}, "[5]": {"target": "T1, human E-selectin, cell-surface expressed", "experiment": "cell-based or functional assay"}, "[6]": {"target": "T2, cynomolgus monkey E-selectin, …", "experiment": "cell-based or functional assay"}, "[7]": {"target": "T3, recombinant histidine-tagged human E-selectin (Sino Biologicals; 13025-H08H) (human, UniProt P16581 22-556)", "T3 sequence (looked up)": "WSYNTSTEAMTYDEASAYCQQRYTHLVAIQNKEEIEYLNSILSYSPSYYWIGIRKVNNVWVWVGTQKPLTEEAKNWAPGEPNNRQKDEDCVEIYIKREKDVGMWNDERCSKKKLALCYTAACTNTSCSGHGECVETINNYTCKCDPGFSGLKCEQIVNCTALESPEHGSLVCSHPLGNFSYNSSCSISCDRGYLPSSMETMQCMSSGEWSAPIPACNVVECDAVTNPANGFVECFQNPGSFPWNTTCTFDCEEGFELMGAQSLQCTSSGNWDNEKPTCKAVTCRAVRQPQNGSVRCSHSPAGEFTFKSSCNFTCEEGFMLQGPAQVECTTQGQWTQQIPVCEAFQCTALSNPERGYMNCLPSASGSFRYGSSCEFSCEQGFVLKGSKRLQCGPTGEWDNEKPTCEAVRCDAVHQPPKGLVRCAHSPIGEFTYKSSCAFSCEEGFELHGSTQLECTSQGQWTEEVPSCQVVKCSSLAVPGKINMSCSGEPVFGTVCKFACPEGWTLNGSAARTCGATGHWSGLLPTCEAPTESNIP", "experiment": "cell-based or functional assay"}}, "data": [{"binder": "optimized anti-E-selectin antibody 1444 (antibody, human IgG1, kappa, V domains shown, effector-null human IgG1, kappa) VH: EVQLVESGGGLVQPGGSLRLSCAASGYAIRSAYMHWVRQAPGKGLEWVARIDPANGNTIYVDSVTGRFTISADNAKNSAYLQMNSLRAEDTAVYYCAMDLYSTSEYWGQGTLVTVSS VL: DIQMTQSPSSLSASVGDRVTITCKTSQNIERYLNWYQQKPGKAPKLLIYAASSLQSGVPSRFSGSGSGTDFTLTISSLQPEDFATYFCLQDNAWPLTFGQGTKVEIKR", "values": [{"measurement": "IC50", "setting": "[1]", "value": 2.33, "unit": "nM"}, {"measurement": "IC50", "setting": "[2]", "value": 1.49, "unit": "nM"}, {"measurement": "IC50", "setting": "[3]", "value": "1.88 to 2.89", "unit": "nM"}, {"measurement": "IC50", "setting": "[4]", "value": "1.47 to 2.65", "unit": "nM"}, {"measurement": "HL-60 adhesion under physiological flow to human CHO-E-selectin cells, IC50", "setting": "[5]", "value": 4.41, "unit": "nM"}, {"measurement": "HL-60 adhesion under physiological flow to cells expressing cynomolgus monkey E-selectin, IC50", "setting": "[6]", "value": 4.34, "unit": "nM"}, {"measurement": "HL-60 cellular adhesion under physiological flow to purified soluble human E-selectin protein, IC50", "setting": "[7]", "value": 15.3, "unit": "nM"}, {"measurement": "adhesion of SCD patient blood cells under physiological flow to recombinant E-selectin, IC50 (one donor)", "setting": "[7]", "value": 6.17, "unit": "nM"}, {"measurement": "adhesion of SCD patient blood cells under physiological flow to recombinant E-selectin, IC50 (other donor)", "setting": "[7]", "value": 18.7, "unit": "nM"}]}]}
